Experimental data taken from article PMC11721464.

Biological target: Zika virus prM/E heterodimer of the immature virion (Zika virus strain MR-766)
Assay: cryo-EM structure; immature ZIKV MR-766 virions purified from NH4Cl-treated Vero E6 cells, neutral pH (TNE buffer, pH 7.4); icosahedral symmetry enforced, 8.3 Å map; homology model of prM/E (template SPOV PDB 6ZQI) fitted and refined in real space

Substance: Zika virus prM/E heterodimer of the immature virion (complex)
- stoichiometry N: 3
